Results on 3 molecules are retold here after US20070189963A1 (EIDGENOSSISCHE TECHNISCHE HOCHSCHULE ZURICH, published 2007).

Some results are limits rather than exact numbers.

The target in assay [1] is hen egg lysozyme (hen) (UniProt P00698). Nature of the assay: 125I-labeled scFv loaded on an antigen column, counting of flow-through and eluate.
For assay [2] the target is unchanged. Nature of the assay: affinity chromatography of the Cy5 conjugate on an antigen column.
Assay [3] concerns the target T1, recombinant ED-B domain of fibronectin (UniProt P02751 1266-1356, biotinylated (biotin disulfide N-hydroxysuccinimide ester) in ELISA and ECL competition; Cy5 at the N-terminal extremity in the band-shift assay).
T1 construct: domain: ED-B; Recombinant fragment as in Carnemolla et al. 1996; also called biotinylated ED-B; ED-B-biotin
Nature of the assay: SPR (BIAcore). Here is the method:
(§1) After loading, the column was washed with 50 ml of equilibration buffer (PBS, 1 mM EDTA, 0.5 M NaCl). Antibody fragments were then eluted with triethylamine 100 mM, immediately neutralised with 1M Hepes, pH 7, and dialysed against PBS, Affinity measurements by BlAcore were performed with purified antibodies as described (Neri et al. (1997). Nature Biotechnol., 15 1271-1275) [FIG. 4]. Band-shift analysis was performed as described (Neri et al. (1996). Nature Biotechnology, 14, 385-390), using recombinant ED-B fluorescently labeled at the N-terminal extremity (Carnemolla et al. (1996). lnt. J. Cancer, 68, 397-405, Neri et al. (1997). Nature Biotechnol., 15 1271-1275) with the infrared fluorophore Cy5 (Amersham) [FIG. 4]. […] We therefore peformed measurements of the kinetic dissociation constant koff by competition experiments (Neri et al. (1996), Trends in Biotechnol., 14, 465-470) [FIG. 4]. […] Streptavidin-coated dynabeads, diluted in Origen Assay Buffer (Deaver, D. R. (1995). Nature, 377, 758-760) were then added (20 μl, 1 mg/ml), and the resulting mixtures analysed with a ORIGEN Analyzer (IGEN Inc. Gaithersburg, Md. USA).
On the technique in general: In SPR one partner is held on a chip, and binding of the other changes the refractive index at the surface.

In assay [4] the target is T1, recombinant ED-B domain of fibronectin. Nature of the assay: SPR (BIAcore), purified scFv. Here is the method:
as §1, with “Meth., 206, 171-182) and affinity purified onto a CNBr-activated sepharose column (Pharmacia, Uppsala, Sweden), which had been coupled with 10 mg of ED-B containing 7B89 recombinant protein (Carnemolla et al. (1996). lnt. J. Cancer, 68, 397-405). After” for “After”, “USA). […]” for “USA).”

Assay [5] has the same target. Nature of the assay: Kd = koff/kon, koff from ECL competition, kon from BIAcore. The method, then: as §1, with “J. Cancer, 68, 397-405). After” for “After”, “USA). […]” for “USA).”
Assay [6] shares this target. Nature of the assay: competition of scFv-(ED-B-biotin) complex with unbiotinylated ED-B, electrochemiluminescent detection (Origen). Here is the method: as §1, with “J. Cancer, 68, 397-405). After” for “After”, “USA). […]” for “USA).”

T1 sequence (P02751 1266-1356 limits assumed): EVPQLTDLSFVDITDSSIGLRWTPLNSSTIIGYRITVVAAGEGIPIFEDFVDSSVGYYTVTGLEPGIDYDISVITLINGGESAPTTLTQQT
hen egg lysozyme (hen), sequence (P00698 19-147): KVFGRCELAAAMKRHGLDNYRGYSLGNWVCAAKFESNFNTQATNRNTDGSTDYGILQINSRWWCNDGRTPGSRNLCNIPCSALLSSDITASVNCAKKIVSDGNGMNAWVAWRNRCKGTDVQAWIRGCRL

Turning to scFv(D1.3), the immunoreactivity with hen egg lysozyme (hen) [1] is 80%.

In the assay with hen egg lysozyme (hen) [2], scFv(HyHEL-10) registered an immunoreactivity of over 78%.

B1: scFv L19 (high-affinity anti-ED-B human scFv antibody fragment) (scFv)
scFv: EVQLLESGGGLVQPGGSLRLSCAASGFTFSSFSMSWVRQAPGKGLEWVSSISGSSGTTYYADSVKGRFTISRDNSKNTLYLQMNSLRAEDTAVYYCAKPFPYFDYWGQGTLVTVSSGDGSSGGSGGASTGEIVLTQSPGTLSLSPGERATLSCRASQSVSSSYLAWYQQKPGQAPRLLIYYASSRATGIPDRFSGSGSGTDFTLTISRLEPEDFAVYYCQQTGRIPPTFGQGTKVEIKDDDSDDDYKDDDDKHHHHHH
notes: T0005 (VH, linker, VL) is not labelled L19 itself; also called antibody L19
Take B1: the koff (commonly the rate constant with which the complex falls apart) was found to be 9.6e-05 s⁻¹ in assay [3] and 6e-06 s⁻¹ in assay [6]. Also, the kon (commonly a measure of how fast the partners come together) in assay [4] was 110000 M⁻¹ s⁻¹. In addition, the Kd (as a rule, the constant that tells how readily two partners part at equilibrium) in assay [5] came out at 0.054 nM.
